Substitutions are numbered along the chain they refer to.
B1: 4487-5 (antibody, V domains shown)
VH: QMQLVQSGPEVRKPGSSVKVSCKASGGTFDNSAITWVRQAPGQGLEWMGGIIPFVGAAAYAQRFLGRATITADASTTSSYLELRGLTSDDTGVYFCARDGLRLNFYYYGMDVWGQGTPIIVSS
VL: QIVLTQSPGTLSLSPGDTATLSCRASQRVTHTHLAWYQQKPGQPPRLLIYATSQRATGIPDRFRGSGSGRDFTLTIASLEPEDFAVYYCQQNGESPRMFGQGTKLDVK
B2: 4513-11 (antibody, V domains shown)
VH: QVQLAQSGAEVKKPGSSVKVSCHVSGGTFSTYAINWVRQAPGHGPEWMGRITPISGATDYAQKFQARITISADESTSAAYLEVRTLRSDDTAVYYCARVGQPKFFERSSDGEHFQHWGQGTLVTVSS
VL: DIQMTQSPSTLSASVGDRTTITCRASQNIDKWLAWYQQKPGKAPTVLIFKASTLESGVPSRFSGSSSGTEFTLTIDNLQPEDSATYFCHQYSRYPWTFGQGTKVELK
B3: 6420-48.2 (antibody, V domains shown)
VH: EVQLVESGGGLVRPGGSLRLSCAASGFTFNTYEMNWVRQAPGKGLEWLSYISSTGNNIFYADSVKGRFTISRDNAKNSLYLQMNNVRTDDTALYYCARGGQLWFGERLNFQHWGQGTQVTVSS
VL: DIQMTQSPSSLSASVGDRVTITCRASQTISNNLNWYQQKPGKAPKFLIYSVSVLQSGVPSRFSGSGSGTDFTLTITSLQPEDFATYYCQQSHSTPLTFGQGTRLEIK
B4: 6420-233.1 (antibody, V domains shown)
VH: EVQLVESGGALVQPGGSLRLSCAASGFNFISYGMNWVRQAPGKGLEWISYISSASNTIYYADSVKGRFTISRDNAKNSLYLQMTSLRDGDSALYYCARDIVTIFFRGRSQHAFSVWGQGTAVAVSS
VL: SYVLTQPPSVSVAPGQTARITCGGNNIGSKNVHWYQQKPGQAPVLVVYDNSDRPSGVPERFSGSNSGNTATLTITRVEAGDEADYYCQVWDISSDHQVFGGGTKLTAL
B5: 6420-233.2 (antibody, V domains shown)
VH: EVQLVESGGGLVQPGGSLRLSCAASGFDFRTYSMNWVRQAPGKGLEWLSYISSTSATIYSADSVKGRFTISRDNAKNSVYLQMNSLRVDDTAVYFCARERITVFFRGRSQHASNVWGQGTMVTVSS
VL: B4 VL with P7A, N25D, S29N, V32A, V57I, T75S, Y86F, I92S, A107V
B6: 4513-12 (antibody, V domains shown)
VH: QLQLQESGPGLVKPSETLALTCSVSGGSIFSSNYYWAWIRQPPGKGLEWMGSVYFSGTTFYNPSLKSRVIVSVDTAKNQFSLKLNSVSAADTAIYYCARDVRMRSGRPRQYCMDVWGKGTTVTVSS
VL: EVVLTQSPGTLSLSPGERATLSCRASQSVNSIYLAWYQQKPGQAPRLLIYGASNRAAGIPDRFSGSGSGTDFTLTIDRLEPEDFAVYYCQQYDTSPAVTFGPGTKVEIK
B7: 4513-14 (antibody, V domains shown)
VH: QVQLVQSGREVKKFGSSVRVSCKASGGSFDTYAISWVRQAPGQGLEWMGQITPMFGTSHMSQRFQGRLTIDTDDSTGTVFMDMRGLRTEDSATYYCAKDWSFDDDGGAYVPSAMDVWGQGTTVIVSS
VL: EIVLTQSPGTLSVSPGERATLSCKASQSISSSSLAWYRQTPGQTPTLLIYGTSTRATGIPDRFSGRGSGTDFTLTITNVKPEDFAVYYCQQYGSSPFTFGPGTRLDFR
B8: 4591-2 (antibody, V domains shown)
VH: QVQLQQWGAGLLKPSETLSLTCDVSGGSFSDFYWSWVRQSPGKGLEWIGDINHSGSSNYIPSLDGRVTISVDTSRSQFSLNLTSVTAADTAIYFCARKVWPFNGMDVWSQGTTVTVSS
VL: ATQLTQSPSFLSASVGDRVTITCRASQGIRNFLAWYQQKPGKAPNLLIYAASTLQSGVPSRFAGSGSGTEFTLTINNVQPEDFATYYCQQLTNYATFGQGTKLEIQ
B9: 6420-48.1 (antibody, V domains shown)
VH: EVQLVESGGGLVQPGGSLRLSCAASGFTFNTYEMNWVRQAPGKGLEWVSYISGTGNNIYYADSVKGRFTISRDNAKNSLYLQMDNLRAEDTAVYYCARGGQLWFGERLYFHFWGQGTLVAVSS
VL: DIQMSQSPSSLSASVGDRVTITCRASQSIGNNLNWYQQKPGKAPNLLIYAASNLQSGVPSRFSGSGSGTDFSLTISSLQPEDFTIYYCQQSFSTPITFGQGTRLEIK
B10: 4487-4 (antibody, V domains shown)
V domain 1: QVQLVQSGTELTKPGMSVKISCRASGTTFTRPYVHWVRQAPGQGLEWMGMINPTGVNVFSAQKFQGRVTMTRQTSTHTSFLELVSLTGDDTAVYYCATSSGVVSLRSAFDIWGQGTILIVSS
V domain 2: QSALSQPASVSGSLGQSITISCSGVGSDAVTYTVVSWYQQHPTKAPKIIISDGDKRPSGVSSRFSGSKSGNTAFLRISGLQTDDEALYYCCSYVGSNTWVFGGGTTVTVL
B11: 6420-35 (antibody, V domains shown)
VH: EVQLVESGGDLVQPGGSLRLSCLGSGFDFRTYGMNWVRQAPGKGLEWVSYISSTSSAIYYTDSIEGRFTISRDNGKNLLSLQMSSLRDEDTAVYYCARGGSLWFGREFHAMDVWGRGTTVTVSS
VL: QAVVTQEPSLTVSPGGTVTLTCGSSTGAVTSDHYPYWFQQKPGQAPRTLIYDTINRHSWAPARFSASLLGGKAALTLSGAQPEDEAEYYCLLSYSGARRVFGGGTKLTVL

Columns and labels:
[1] = biological target: trimeric Env protein (HIV-1 Env gp140 trimer antigens of the panel: ZM197, CNE55, CZA97); experiment: ELISA (AUC) on HIV-1 Env gp140 trimer and gp120 monomer panel
[2] = biological target: BG505.SOSIP CD4bs variants (BG505.SOSIP.D368R, BG505.SOSIP.N279K, BG505.SOSIP.D368R/N279K (DKO)); experiment: ELISA AUC normalized to BG505.SOSIP.backbone

Row | Binder | binding to trimeric Env protein relative to monomeric Env protein [1] [times] | fold decrease in binding against BG505.SOSIP Env [2] [fold]
1 | B1 | > 3 | 
2 | B2 | > 3 | 
3 | B3 |  | > 2
4 | B4 |  | > 2
5 | B5 |  | > 2
6 | B6 | > 3 | 
7 | B7 | > 3 | 
8 | B8 |  | > 2
9 | B9 |  | > 2
10 | B10 | > 3 | 
11 | B11 |  | > 2
